The target of assay [1] is T1, hPDL1(19-239)-TVMV-His (human, UniProt Q9NZQ7 19-239).
T1 construct: The text says amino acids 18-239, the construct name says 19-239; also called PD-L1-His; PD-L1-TVMV-His
The assay can be described thus: HTRF competition, inhibitor titrated against PD-1-Ig binding to PD-L1-His. The protocol: All binding studies were performed in an HTRF assay buffer consisting of dPBS supplemented with 0.1% (w/v) bovine serum albumin and 0.05% (v/v) Tween-20. […] PD-L1 fusion proteins from either human, cynomologous macaques, or mouse were used. HTRF detection was achieved using europium crypate-labeled anti-Ig monoclonal antibody (1 nM final) and allophycocyanin (APC) labeled anti-His monoclonal antibody (20 nM final). Antibodies were diluted in HTRF detection buffer and 5 μl was dispensed on top of binding reaction. The reaction was allowed to equilibrate for 30 minutes and signal (665 nm/620 nm ratio) was obtained using an EnVision fluorometer. […]
T1 sequence (Q9NZQ7 other isoform, or with tags, fused parts or gaps limits assumed): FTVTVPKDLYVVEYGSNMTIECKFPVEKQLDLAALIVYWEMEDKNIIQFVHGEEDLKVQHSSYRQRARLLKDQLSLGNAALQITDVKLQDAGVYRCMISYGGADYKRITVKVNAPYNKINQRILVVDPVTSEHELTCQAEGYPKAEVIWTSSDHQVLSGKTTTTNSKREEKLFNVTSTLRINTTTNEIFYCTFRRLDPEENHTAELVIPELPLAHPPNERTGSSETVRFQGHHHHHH
(In general: In TR-FRET formats the signal depends on donor and acceptor labels being close together.)

For assay [2], the target named is T2, human PD-L1 (human, UniProt Q9NZQ7 19-239, limits assumed).
T2 construct: also called Hu PD-L1; hPD-L1
The assay can be described thus: cell binding assay, inhibition of human PD-L1/PD-1 binding (cell format not given).
T2 sequence (Q9NZQ7 19-239 limits assumed): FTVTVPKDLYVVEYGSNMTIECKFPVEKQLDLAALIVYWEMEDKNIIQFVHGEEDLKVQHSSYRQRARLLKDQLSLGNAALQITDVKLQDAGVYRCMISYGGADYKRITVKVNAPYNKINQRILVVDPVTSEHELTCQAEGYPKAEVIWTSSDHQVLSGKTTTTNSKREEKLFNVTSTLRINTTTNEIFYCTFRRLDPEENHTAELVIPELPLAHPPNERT

Assay [3] addresses T3, human PD-L1 (human, UniProt Q9NZQ7 19-239, limits assumed).
T3 construct: also called Hu PD-L1; hPD-L1
The assay can be described thus: cell binding assay, inhibition of human PD-L1/PD-1 binding on cells (cell format not given).
T3 sequence (Q9NZQ7 19-239 limits assumed): as above

For the next assay, the target named is human PD-L1 on cells (human, UniProt Q9NZQ7 19-290). The assay can be described thus: cell-based or functional assay.
Assay [4] has as its target T4, hPDL1(19-239)-TVMV-His (human, UniProt Q9NZQ7 19-239).
T4 construct: The construct name says 19-239, the running text says amino acids 18-239; Expressed in HEK293T cells; also called PD-L1-His; PD-L1-TVMV-His
The assay can be described thus: HTRF competition, PD-1-Ig (20 nM) binding to human PD-L1-His (10 nM).
T4 sequence (Q9NZQ7 other isoform, or with tags, fused parts or gaps limits assumed): as the sequence (Q9NZQ7 other isoform, or with tags, fused parts or gaps limits assumed) above

This note sets out measurements from patent publication US20140294898A1 (published 2014).

Positions of bridges follow the written chain, without caps; N, C: chain ends. Non-standard residues stand in square brackets, D forms with d. Primed or numbered codes have the meaning given here. NMeF = CN[C@@H](Cc1ccccc1)C(=O)O; PEG12′ = C-terminal PEG12 spacer; NMeNle = CCCC[C@H](NC)C(=O)O; NMeA = CN[C@@H](C)C(=O)O; Sar = CNCC(=O)O A value given as a limit tells only on which side of the number the result lay.

Sequence of human PD-L1 on cells (Q9NZQ7 19-290): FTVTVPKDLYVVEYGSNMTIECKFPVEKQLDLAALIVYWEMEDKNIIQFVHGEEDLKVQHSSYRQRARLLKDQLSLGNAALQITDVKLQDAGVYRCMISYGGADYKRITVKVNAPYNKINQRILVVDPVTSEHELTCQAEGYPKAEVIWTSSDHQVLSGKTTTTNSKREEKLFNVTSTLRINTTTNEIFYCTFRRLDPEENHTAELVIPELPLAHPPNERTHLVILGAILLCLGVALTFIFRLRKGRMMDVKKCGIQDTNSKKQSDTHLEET

B1: Compound No. 71 (peptide)
peptide: FFXGDVFYGWYLCG
HELM: PEPTIDE1{[O=C(C[*:3])[*:2]].F.[meF].[CCCC[C@@H](C(=O)[*:2])N(C)[*:1]].[Sar].D.V.[meF].Y.[Sar].W.Y.L.C.G.[am]}$PEPTIDE1,PEPTIDE1,1:R3-14:R3$$$V2.0
SMILES: CCCC[C@H]1C(=O)N(C)CC(=O)N[C@@H](CC(=O)O)C(=O)N[C@@H](C(C)C)C(=O)N(C)[C@@H](Cc2ccccc2)C(=O)N[C@@H](Cc2ccc(O)cc2)C(=O)N(C)CC(=O)N[C@@H](Cc2c[nH]c3ccccc23)C(=O)N[C@@H](Cc2ccc(O)cc2)C(=O)N[C@@H](CC(C)C)C(=O)N[C@H](C(=O)NCC(N)=O)CSCC(=O)N[C@@H](Cc2ccccc2)C(=O)N(C)[C@@H](Cc2ccccc2)C(=O)N1C
notes: Macrocyclic peptide; X stands for norleucine
With B1, the half-maximal inhibitory concentration (IC50) (commonly the midpoint of a concentration-inhibition curve) with hPDL1(19-239)-TVMV-His [1] stood at 7 nM.

B2: Compound No. 75 (peptide)
peptide: FFAGDVFYGWYLCG
HELM: PEPTIDE1{[O=C(C[*:3])[*:2]].F.[meF].[meA].[Sar].D.V.[meF].Y.[Sar].W.Y.L.C.G.[am]}$PEPTIDE1,PEPTIDE1,1:R3-14:R3$$$V2.0
SMILES: CC(C)C[C@@H]1NC(=O)[C@H](Cc2ccc(O)cc2)NC(=O)[C@H](Cc2c[nH]c3ccccc23)NC(=O)CN(C)C(=O)[C@H](Cc2ccc(O)cc2)NC(=O)[C@H](Cc2ccccc2)N(C)C(=O)[C@H](C(C)C)NC(=O)[C@H](CC(=O)O)NC(=O)CN(C)C(=O)[C@H](C)N(C)C(=O)[C@H](Cc2ccccc2)N(C)C(=O)[C@H](Cc2ccccc2)NC(=O)CSC[C@@H](C(=O)NCC(N)=O)NC1=O
notes: Variant of Compound No. 71: mNle3 to mAla
B2 registered an IC50 with human PD-L1 [2] of 438 nM.

B3: Compound No. 4 (peptide)
peptide: {CH2CO}-F[NMeA]NPLRSWRW[NMeNle][NMeNle]LCG-NH2
modifications: thioether N-14
SMILES: CCCC[C@H]1C(=O)N(C)[C@@H](CCCC)C(=O)N[C@@H](CC(C)C)C(=O)N[C@H](C(=O)NCC(N)=O)CSCC(=O)N[C@@H](Cc2ccccc2)C(=O)N(C)[C@@H](C)C(=O)N[C@@H](CC(N)=O)C(=O)N2CCC[C@H]2C(=O)N[C@@H](CC(C)C)C(=O)N[C@@H](CCCNC(=N)N)C(=O)N[C@@H](CO)C(=O)N[C@@H](Cc2c[nH]c3ccccc23)C(=O)N[C@@H](CCCNC(=N)N)C(=O)N[C@@H](Cc2c[nH]c3ccccc23)C(=O)N1C
notes: also called Compound 4
The molecule B3 had an IC50 with human PD-L1 [3] of 15 nM. In other words, the double-digit nanomolar range.

For the molecule {CH2CO}-FLIVIRDRVFRCG-NH2 (thioether N-12), the “IFNγ secretion by CMV-specific T cells (ELISA), EC50” value with human PD-L1 on cells is above 10000 nM.

With {CH2CO}-F[NMeF][NMeNle][Sar]DV[NMeF]Y[Sar]WYLCG-{PEG12′-NH2} (thioether N-13) [Compound No. 118], the IC50 in the assay with hPDL1(19-239)-TVMV-His [4] was determined as 3 nM.

Regarding {CH2CO}-F[NMeA]NPHHSWRW[NMeNle][NMeNle]LCG-{PEG12′-NH2} (thioether N-14) [Compound No. 117], the half-maximal inhibitory concentration (IC50) in the assay with hPDL1(19-239)-TVMV-His [4] is 21 nM.

B4: Compound No. 2 (peptide)
peptide: {CH2CO}-F[NMeA]NPHHSWRW[NMeNle][NMeNle]LCG-NH2
modifications: thioether N-14
SMILES: CCCC[C@H]1C(=O)N(C)[C@@H](CCCC)C(=O)N[C@@H](CC(C)C)C(=O)N[C@H](C(=O)NCC(N)=O)CSCC(=O)N[C@@H](Cc2ccccc2)C(=O)N(C)[C@@H](C)C(=O)N[C@@H](CC(N)=O)C(=O)N2CCC[C@H]2C(=O)N[C@@H](Cc2c[nH]cn2)C(=O)N[C@@H](Cc2c[nH]cn2)C(=O)N[C@@H](CO)C(=O)N[C@@H](Cc2c[nH]c3ccccc23)C(=O)N[C@@H](CCCNC(=N)N)C(=O)N[C@@H](Cc2c[nH]c3ccccc23)C(=O)N1C
As for B4, the “IFNγ secretion by CMV-specific T cells (ELISA), EC50” value with human PD-L1 on cells is 400 nM.

B5: Compound No. 82 (peptide)
peptide: FFXGDVFYGWYLCG
HELM: PEPTIDE1{[O=C(C[*:3])[*:2]].F.[meF].[CCCC[C@@H](C(=O)[*:2])N(C)[*:1]].[Sar].D.V.F.Y.[Sar].W.Y.L.C.G.[am]}$PEPTIDE1,PEPTIDE1,1:R3-14:R3$$$V2.0
SMILES: CCCC[C@H]1C(=O)N(C)CC(=O)N[C@@H](CC(=O)O)C(=O)N[C@@H](C(C)C)C(=O)N[C@@H](Cc2ccccc2)C(=O)N[C@@H](Cc2ccc(O)cc2)C(=O)N(C)CC(=O)N[C@@H](Cc2c[nH]c3ccccc23)C(=O)N[C@@H](Cc2ccc(O)cc2)C(=O)N[C@@H](CC(C)C)C(=O)N[C@H](C(=O)NCC(N)=O)CSCC(=O)N[C@@H](Cc2ccccc2)C(=O)N(C)[C@@H](Cc2ccccc2)C(=O)N1C
notes: Variant of Compound No. 71: mPhe7 to Phe (N-methyl removed)
In turn, B5 yielded a concentration for half-maximal inhibition (IC50) with human PD-L1 [2] of 203 nM.

B6: Compound No. 2 (peptide)
peptide: {CH2CO}-F[NMeA]NPHHSWRW[NMeNle][NMeNle]LCG-NH2
modifications: thioether N-14
SMILES: CCCC[C@H]1C(=O)N(C)[C@@H](CCCC)C(=O)N[C@@H](CC(C)C)C(=O)N[C@H](C(=O)NCC(N)=O)CSCC(=O)N[C@@H](Cc2ccccc2)C(=O)N(C)[C@@H](C)C(=O)N[C@@H](CC(N)=O)C(=O)N2CCC[C@H]2C(=O)N[C@@H](Cc2c[nH]cn2)C(=O)N[C@@H](Cc2c[nH]cn2)C(=O)N[C@@H](CO)C(=O)N[C@@H](Cc2c[nH]c3ccccc23)C(=O)N[C@@H](CCCNC(=N)N)C(=O)N[C@@H](Cc2c[nH]c3ccccc23)C(=O)N1C
notes: also called Compound 2
B6 returned an IC50 in the assay with human PD-L1 [3] of 43 nM.

B7: Compound No. 3 (peptide)
peptide: {CH2CO}-F[NMeA]NPHRSWRW[NMeNle][NMeNle]LCG-NH2
modifications: thioether N-14
SMILES: CCCC[C@H]1C(=O)N(C)[C@@H](CCCC)C(=O)N[C@@H](CC(C)C)C(=O)N[C@H](C(=O)NCC(N)=O)CSCC(=O)N[C@@H](Cc2ccccc2)C(=O)N(C)[C@@H](C)C(=O)N[C@@H](CC(N)=O)C(=O)N2CCC[C@H]2C(=O)N[C@@H](Cc2c[nH]cn2)C(=O)N[C@@H](CCCNC(=N)N)C(=O)N[C@@H](CO)C(=O)N[C@@H](Cc2c[nH]c3ccccc23)C(=O)N[C@@H](CCCNC(=N)N)C(=O)N[C@@H](Cc2c[nH]c3ccccc23)C(=O)N1C
notes: as for B1
Take B7: the IC50 with hPDL1(19-239)-TVMV-His [1] was 13 nM.

B8: Compound No. 4 (peptide)
peptide: {CH2CO}-F[NMeA]NPLRSWRW[NMeNle][NMeNle]LCG-NH2
modifications: thioether N-14
SMILES: CCCC[C@H]1C(=O)N(C)[C@@H](CCCC)C(=O)N[C@@H](CC(C)C)C(=O)N[C@H](C(=O)NCC(N)=O)CSCC(=O)N[C@@H](Cc2ccccc2)C(=O)N(C)[C@@H](C)C(=O)N[C@@H](CC(N)=O)C(=O)N2CCC[C@H]2C(=O)N[C@@H](CC(C)C)C(=O)N[C@@H](CCCNC(=N)N)C(=O)N[C@@H](CO)C(=O)N[C@@H](Cc2c[nH]c3ccccc23)C(=O)N[C@@H](CCCNC(=N)N)C(=O)N[C@@H](Cc2c[nH]c3ccccc23)C(=O)N1C
notes: as for B1
On to B8, for which, in the assay with hPDL1(19-239)-TVMV-His [1], the 50% inhibitory concentration (IC50) came to 15 nM. The IC50 values of the last two molecules are within 1.5-fold of each other.

{CH2CO}-F[NMeA]NPHL[Sar]WSW[NMeNle][NMeNle]RCG-{PEG12′-NH2} (thioether N-14) [Compound No. 116]: the 50% inhibitory concentration (IC50) with hPDL1(19-239)-TVMV-His [4] was 21 nM.

In the assay with human PD-L1 [3], {CH2CO}-FLIVIRDRVFRCG-NH2 (thioether N-12, also called Compound 99) came in with an IC50 of 1400 nM.

B9: Compound No. 71 (peptide)
peptide: FFXGDVFYGWYLCG
HELM: PEPTIDE1{[O=C(C[*:3])[*:2]].F.[meF].[CCCC[C@@H](C(=O)[*:2])N(C)[*:1]].[Sar].D.V.[meF].Y.[Sar].W.Y.L.C.G.[am]}$PEPTIDE1,PEPTIDE1,1:R3-14:R3$$$V2.0
SMILES: CCCC[C@H]1C(=O)N(C)CC(=O)N[C@@H](CC(=O)O)C(=O)N[C@@H](C(C)C)C(=O)N(C)[C@@H](Cc2ccccc2)C(=O)N[C@@H](Cc2ccc(O)cc2)C(=O)N(C)CC(=O)N[C@@H](Cc2c[nH]c3ccccc23)C(=O)N[C@@H](Cc2ccc(O)cc2)C(=O)N[C@@H](CC(C)C)C(=O)N[C@H](C(=O)NCC(N)=O)CSCC(=O)N[C@@H](Cc2ccccc2)C(=O)N(C)[C@@H](Cc2ccccc2)C(=O)N1C
notes: also called Compound 71
On to B9, for which the half-maximal inhibitory concentration (IC50) with human PD-L1 [3] amounted to 10 nM.
